Tested on: MS2 coat protein
Test: apparent KD of MS2 coat protein; designed switch direction (-1 OFF switch, 1 ON switch): -1; higher = weaker reporter binding
Outline: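 The buffer was Tris-HCl pH 7.5 with KCl, MgCl2, BSA, DTT, tRNA and Tween-20. In it, SNAP-549-labelled MS2 coat protein was titrated in doubling steps from 0.7 or 1.5 nM to 3 µM over chip-bound RNA switches transcribed by stalled E. coli RNA polymerase on Illumina chips. Apparent KD is the per-design median over clusters of curve fits to normalised fluorescence.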

[1] = Eterna round: R95, input ligand: FMN 200 uM
[2] = Eterna round: R95, input ligand: microRNA oligo, concentration not stated
[3] = Eterna round: R95, input ligand: none
[4] = input ligand: microRNA oligo, concentration not stated

UCCCAGUGAGGAUAUACUUAUCGGGUCGGUUAGCGAGGAAAACUUGAGGAUCACCCAAGUAGAAGGCGCAACGU [Isinar] (Eterna round: R97, puzzle: Exclusion 2)
apparent KD of MS2 coat protein (input ligand: FMN 200 uM): 35.1 nM | apparent KD of MS2 coat protein (input ligand: none): 29.6 nM

CCAGCAAAUGUGAGGAUAUGCUGGUCCUUGGAUCAGCAGAAGGCACAUGAGGAUCACCCAUGUGGGAUAGCUGG [Eli bmx4 4.59] (Eterna round: R97, puzzle: Brourd's mod of Exclusion 4)
apparent KD of MS2 coat protein (input ligand: FMN 200 uM): 412 nM | apparent KD of MS2 coat protein (input ligand: none): 194 nM

CCGACCCUAGGAUAUUGUACUGCUGACAUGAGGAUCACCCAUGUAUGUUAACUCGGCCGACGAGAAGGAGGCGAAA [BotMod 5 - Jieux - Exclusion 5] (Eterna round: R97, puzzle: Exclusion 5)
apparent KD of MS2 coat protein (input ligand: FMN 200 uM): 21.7 nM | apparent KD of MS2 coat protein (input ligand: none): 20.3 nM

CUGGUCCGAGGAUAUAUUAAGUGAUACAUGAGGAUCACCCAUGUAAUUUAAUGGAUGUAAAUAGAAGGCGGACUAG [JL-ex5-3.11] (puzzle: Exclusion 5)
apparent KD of MS2 coat protein [1]: 43.2 nM | apparent KD of MS2 coat protein [2]: 39.7 nM | apparent KD of MS2 coat protein [3]: 38.7 nM

UUGUUCCGUGUAGGAUAUUGGCCUUCCUCGGGCCGAGAAGGACAUGAGGAUCACCCAUGUAUGCUAUUAUCGCGCGUGGCGCAC [Design 95] (Eterna round: R96, puzzle: Exclusion NG 1)
apparent KD of MS2 coat protein (input ligand: FMN 200 uM): 279 nM | apparent KD of MS2 coat protein [4]: 22.4 nM | apparent KD of MS2 coat protein (input ligand: none): 39.9 nM

AGGGAUAAAGGAUAUACAUGAGGAUCACCCAUGUUGAGGAAGGUUAGAGGUGGCGAUAGUAGAAGGUUAGGUAG [JR_Exclu3_Sub081] (puzzle: Exclusion 3)
apparent KD of MS2 coat protein [2]: 77 nM

ACAGGUUUCAUAGGAUAUCUCUGACUAUGGCACUCCUUGUGUCCACAUGAGGAUCACCCAUGUCGAGAGAAGGGUGCACCUGCG [Arenena] (Eterna round: R96, puzzle: Exclusion NG 2)
apparent KD of MS2 coat protein (input ligand: FMN 200 uM): 147 nM | apparent KD of MS2 coat protein [4]: 64.9 nM | apparent KD of MS2 coat protein (input ligand: none): 65.7 nM

GGACAGGGAGGAUAUACUUGAGGAUCACCCAAGUCGUAUAAUCGAUGAUCACGCCGAAGUAGAAGGCCCAAAAC [EX3 #82] (Eterna round: R97, puzzle: Exclusion 3)
apparent KD of MS2 coat protein (input ligand: FMN 200 uM): 36.1 nM | apparent KD of MS2 coat protein (input ligand: none): 353 nM

AACCCUCGUCAAGGAUAUACAUAGAAAAGCUUGGUAGAAGGUGACAUGAGGAUCACCCAUGUAUAAAGUUCGUCCAAUCGAACC [Diesisra] (Eterna round: R96, puzzle: Exclusion NG 1)
apparent KD of MS2 coat protein (input ligand: FMN 200 uM): 139 nM | apparent KD of MS2 coat protein [4]: 80.9 nM | apparent KD of MS2 coat protein (input ligand: none): 110 nM

AAGAAACAUGAGGAUCACCCAUGUGAGGAUAUGAUAAAGAAAAGAAAAGAAAGAAGAGUCAGAAGGCACAAAGG [salish99-ex1_r3_037] (puzzle: Exclusion 1)
apparent KD of MS2 coat protein [1]: 71.6 nM | apparent KD of MS2 coat protein [2]: 35.8 nM | apparent KD of MS2 coat protein [3]: 47.4 nM

AAAAGAACAGGAUAUUCGUGAAAUAACAUGAGGAUCACCCAUGUUAACGCGGGUGAGAACGAAGAAGGGUUCUAAA [Ceries] (puzzle: Exclusion 5)
apparent KD of MS2 coat protein [1]: 121 nM | apparent KD of MS2 coat protein [2]: 42.1 nM | apparent KD of MS2 coat protein [3]: 61.4 nM

GAUUGAUAAGGAUAUACAUGAGGAUCACCCAUGUGCUUCAGCUAGGAGACUAGCAUUGGUAGAAGGUAUUAAUC [Mod of lroppy 12 - Jieux - Exclusion 3] (Eterna round: R97, puzzle: Exclusion 3)
apparent KD of MS2 coat protein (input ligand: FMN 200 uM): 51.8 nM | apparent KD of MS2 coat protein (input ligand: none): 21.8 nM

AAAAGGCUAGGAUAUACCAGUGGGUGUAAGAACUCAAAGUUACAUGAGGAUCACCCAUGUAGAAGGAGUAAAAU [Diriti] (puzzle: Exclusion 2)
apparent KD of MS2 coat protein [2]: 16.2 nM
